Results: patent US20080274959A1, “Actinomadura Chromoprotein, Apoprotein and Gene Cluster” (Wyeth, priority 2004, published 2008)

Experiments:
histone H1 in HeLa cells = assay: Digestion of histone H1 in HeLa cells, immunoblot; type: cell-based; conditions: overnight at 37° C., anti-histone H1 immunoblot
Experimental: To study whether the digestion of histones by the chromoprotein occurs in intact cells, HeLa cells were incubated with compounds overnight at 37° C. Cell lysates were analysed by SDS-PAGE and protein immunoblotting using anti-histone H1 antibodies (Santa Cruz Biotechnologies). […] This activity can contribute to antitumor effects by digesting histones in chromatin, making the DNA more accessible for cleavage. This appears to be a unique activity of the chromoprotein enediynes.

[1] = test system: p53/p21 checkpoint in HCT116 (p21+/+ and p21−/−) cells; assay: Induction of the G1/S (p53/p21) checkpoint, immunoblot; type: cell-based, human
Source text: HCT116 (p21+/+ and p21−/−) cells were exposed to the chromoprotein at various concentrations. […] Activation of the DNA damage checkpoint by the Actinomadura sp. […] 21G792 chromoprotein as shown by the cleavage of poly ADP ribose […] (PARP) (FIG. 23B). This is consistent with the lower IC50 value in the p21−/− cells.

HT29 = assay: Potency against human tumor cell lines: HT29; type: cell-based; conditions: HT29, Colon
bovine serum albumin = bovine serum albumin (Bos taurus, UniProt P02769); assay: Specificity of digestion: bovine serum albumin; type: biochemical; conditions: neutral/acidic protein
KB-8-5 = assay: IC50 against P-GP expressing cells: KB-8-5; type: cell-based; conditions: KB-8-5, P-GP level +; mean of two independent experiments
Source text: Human PGP (MDR1) is an ATP-dependent efflux pump which is capable of transporting many drugs across cell membranes. High level expression of this protein has been linked to multiple drug resistance of tumors. […] The protein component of the chromoprotein probably protects the chromophore from drug efflux mediated by MDR1, and may be responsible for the beneficial antitumor effects in colon cell lines which often express MDR1.

HN5 = assay: Potency against human tumor cell lines: HN5; type: cell-based; conditions: HN5, Head & Neck
Toxicity in nude mice = type: in vivo; conditions: for Bone Marrow Necrosis, average lesion severity: 0 = WNL, 1 = slight, 2 = mild, 3 = moderate, 4 = marked, 5 = severe
Experimental: 21G792 chromoprotein is well-tolerated in nude mice. Specifically, saline control vehicle or the chromoprotein in various doses was administered intravenously to six nude mice on days 1, 5, and 9.

MCF-7 = assay: Potency against human tumor cell lines: MCF-7; type: cell-based; conditions: MCF-7, Breast
[2] = test system: LoVo, HCT116, HT29, LOX, HN5 and PC-3 tumors; assay: In vivo anti-tumor activity, subcutaneous human tumor xenografts; design: species or system athymic (nude) mice; conditions: intravenous in saline, further doses on days 5 and 9; all six xenograft models
Experimental: The human tumor cell lines or fragments LoVo (colon cancer); HCT116 (colon); HT29 (colon); LOX (melanoma); HN5 (head & neck); and PC-3 (prostate) were implanted under the skin of athymic (nude) mice and allowed to form a tumor mass. When the tumors reached a size of 90-200 mg, the saline control vehicle or various concentrations of the Actinomadura sp. 21G792 chromoprotein formulated in saline was administered intravenously to the mice. The mice received subsequent doses on days 5 and 9 and the relative tumor growth was observed. The results are shown in the graphs in FIG. 24 and FIG. 25. Inhibition of tumor growth of up to 80% for mice receiving the chromoprotein was observed.

Supercoiled φX174 DNA = assay: DNA cleavage assay, gel electrophoresis; type: biochemical
Experimental: Supercoiled φX174 DNA was incubated with various concentrations of the 21G792 chromoprotein and analyzed by gel electrophoresis. […] Nicked refers to single strand breaks in the DNA and linear refers to double strand breaks.

MDA-MB-361 = assay: Potency against human tumor cell lines: MDA-MB-361; type: cell-based; conditions: MDA-MB-361, Breast
SW620 = assay: Potency against human tumor cell lines: SW620; type: cell-based; conditions: SW620, Colon
p21−/− cells = assay: Sensitivity of isogenic cell lines, p21−/−; type: cell-based, human
Source text: (§1) The p53/p21 checkpoint monitors the integrity of the genome and blocks cell cycle progression in the event of DNA damage. Disruption of the checkpoint by deletion of the p21 gene results in failure to arrest in response to DNA damage ultimately leading to cell death through apoptosis. Since loss of this checkpoint is a hallmark of cancer cells, an isogenic pair of cell lines, wherein one pair of the cell line (p21+/+) has an intact p21 gene and one member (p21−/−) has a deletion in the p21 gene, can be used to screen for potential anti-tumor compounds by identifying molecules that preferentially induce apoptosis in p21-deficient cells.
(§2) The Actinomadura sp. 21G792 chromoprotein was added to an isogenic pair of cell lines (p21+/+ and p21−/−).

PC3 = assay: Potency against human tumor cell lines: PC3; type: cell-based; conditions: PC3, Prostate
p21+/+ cells = assay: Sensitivity of isogenic cell lines, p21+/+; type: cell-based, human; conditions: p21+/+ isogenic cell line; Mean ± SD, n = 3
Source text: as §1, §2

DLD1 = assay: Potency against human tumor cell lines: DLD1; type: cell-based; conditions: DLD1, Colon
HCT116 = assay: Potency against human tumor cell lines: HCT116; type: cell-based; conditions: HCT116, Colon
Experimental: as §2

Chain of bovine serum albumin (P02769 25-607): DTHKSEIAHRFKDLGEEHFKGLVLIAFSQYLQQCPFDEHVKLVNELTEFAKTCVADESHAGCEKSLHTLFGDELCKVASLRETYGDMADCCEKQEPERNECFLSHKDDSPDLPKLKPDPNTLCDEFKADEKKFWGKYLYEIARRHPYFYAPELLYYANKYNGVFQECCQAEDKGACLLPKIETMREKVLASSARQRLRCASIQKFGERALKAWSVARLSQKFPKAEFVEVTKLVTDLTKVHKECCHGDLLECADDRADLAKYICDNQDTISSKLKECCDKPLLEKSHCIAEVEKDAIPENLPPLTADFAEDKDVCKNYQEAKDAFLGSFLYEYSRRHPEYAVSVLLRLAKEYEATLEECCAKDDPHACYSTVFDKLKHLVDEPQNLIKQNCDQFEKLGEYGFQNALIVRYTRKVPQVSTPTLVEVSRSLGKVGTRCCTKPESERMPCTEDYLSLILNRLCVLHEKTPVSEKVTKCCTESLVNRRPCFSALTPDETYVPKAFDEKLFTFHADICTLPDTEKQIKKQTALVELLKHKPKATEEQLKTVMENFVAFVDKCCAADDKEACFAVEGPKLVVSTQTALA

B1: Actinomadura sp. 21G792 chromoprotein: non-covalent complex of an apoprotein and a chromophore comprising a nine-membered enediyne, produced by Actinomadura sp. 21G792 (NRRL 30778) (protein)
chain: DTVTVNYDCVGYPSDIAVTIDAPATAGVGDTATFEVSSVVTTGAPQDLPAGEVVTDMAIVVGGAQSGTITASGLTNEATPAGQPVNMVGGEAQITFTSAGSVTFTPSTTTQVDNGAQCTVVGEAPVGATTVVS
histone H1 in cells after incubation (histone H1 in HeLa cells): reduced histone H1 in cells | induction of the p21 protein [1]: seen in the p21+/+ cells only | phosphorylation of serine-15 of p53 [1]: phosphorylation of the serine-15 amino acid residue in p53 | activation of the p53 checkpoint ([1]; HCT116 p21+/+ and p21−/−, various concentrations): activation of the p53 checkpoint for all tested concentrations | induction of apoptosis (PARP cleavage) ([1]; p21−/− compared with p21+/+ cells): preferentially observed in p21−/− cells | IC50 (HT29): 8 ng/mL | cleavage of bovine serum albumin (bovine serum albumin): not neutral/acidic proteins such as bovine serum albumin | IC50 (KB-8-5): 6 ng/mL | IC50 (HN5): 4 ng/mL | Lymphocytes (Toxicity in nude mice; 3 mg/kg): 290 cells/μl | WBC (Toxicity in nude mice; 3 mg/kg): 1430 cells/μl | Bone Marrow Necrosis, number with lesion/total number examined (Toxicity in nude mice; 3 mg/kg i.v. days 1, 5, 9): 6/6 | Bone Marrow Necrosis, average lesion severity (Toxicity in nude mice; 3 mg/kg): 1.7 | Lymphocytes (Toxicity in nude mice; 6 mg/kg): 40 cells/μl | WBC (Toxicity in nude mice; 6 mg/kg): 1280 cells/μl | Bone Marrow Necrosis, number with lesion/total number examined (Toxicity in nude mice; 6 mg/kg i.v. days 1, 5, 9): 6/6 | Bone Marrow Necrosis, average lesion severity (Toxicity in nude mice; 6 mg/kg): 3 | tolerability (Toxicity in nude mice; intravenous on days 1, 5 and 9): well-tolerated | adverse effects in the intestine, nerves, spinal cord, liver, or at the site of injection (Toxicity in nude mice; mouse, in vivo): No adverse effects | IC50 (MCF-7): 2 ng/mL | Inhibition of tumor growth [2]: up to 80% | need of a reducing agent (dithiothreitol, DTT) for DNA cleavage (Supercoiled φX174 DNA): did not require a reducing agent | DNA cleavage (Supercoiled φX174 DNA; various concentrations, reaction progressed over 24 hours): induced single strand breaks and double strand breaks | IC50 (MDA-MB-361): 5 ng/mL | IC50 (SW620): 2 ng/mL | Selectivity Ratio (p21−/− cells; IC50 p21+/+ versus p21−/−): 13 | IC50 (p21−/− cells; p21−/− isogenic cell line, Mean ± SD, n = 3): 7000 ± 2000 ng/mL | IC50 higher for p21+/+ cells than for p21−/− cells (p21−/− cells; text statement of the selectivity): 13 fold | IC50 (PC3): 22000 ng/mL | IC50 (p21+/+ cells): 90000 ± 32000 ng/mL | IC50 (DLD1): 8000 ng/mL | IC50 (HCT116): 1000 ng/mL
